From paper PMC10699557, “A recombinant approach for stapled peptide discovery yields inhibitors of the RAD51 recombinase†” (Chemical Science, 2023)
Bridge positions count the residues as written; N and C are the ends. Ends that are not written are not given here. DVT = divinyltriazine staple linking the two cysteines

Molecular target: HumRadA22
Assay: fluorescence polarisation; competition: displacement of a fluorescently-labelled BRC4 repeat from HumRadA22; KD calculated from IC50; single titrations with three technical replicates at each point; mock (linear) samples with 500 uM TCEP
Settings: both partners purified

VNSSAFSGFCTASGKKLNVSCEALQKAVKLFSDIENIS (linker 10-21 via DVT (inferred); also: His8 tag in name not shown in chain) [GB1-SP7-His8, stapled with DVT] showed a Kd of 0.149 µM.
